Data: PMC4643364 (Cancer cell, 2015)

Target: T1, EphB4 labelled with NT-647 dye (UniProt P54760 16-539, NT-647 dye through primary amide coupling)
T1 sequence (looked up): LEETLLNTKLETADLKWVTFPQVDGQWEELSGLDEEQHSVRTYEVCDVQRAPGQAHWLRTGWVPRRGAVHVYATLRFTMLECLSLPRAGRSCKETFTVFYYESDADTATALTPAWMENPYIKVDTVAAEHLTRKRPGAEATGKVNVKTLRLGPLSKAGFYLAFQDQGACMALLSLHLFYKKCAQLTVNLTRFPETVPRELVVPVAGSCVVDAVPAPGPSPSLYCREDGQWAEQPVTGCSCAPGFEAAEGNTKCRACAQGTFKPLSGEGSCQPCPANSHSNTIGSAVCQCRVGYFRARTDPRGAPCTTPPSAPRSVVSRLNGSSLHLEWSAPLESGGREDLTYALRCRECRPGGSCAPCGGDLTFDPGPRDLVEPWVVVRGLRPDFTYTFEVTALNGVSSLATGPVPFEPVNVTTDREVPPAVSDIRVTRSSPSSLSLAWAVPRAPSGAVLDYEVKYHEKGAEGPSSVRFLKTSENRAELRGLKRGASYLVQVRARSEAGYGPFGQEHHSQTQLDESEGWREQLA
Experiment: MST

B1: EphrinB2/Fc, purified recombinant protein (Fc fusion, UniProt P52799 28-229, looked up)
chain: IVLEPIYWNSSNSKFLPGQGLVLYPQIGDKLDIICPKVDSKTVGQYEYYKVYMVDKDQADRCTIKKENTPLLNCAKPDQDIKFTIKFQEFSPNLWGLEFQKNKDYYIISTSNGSLEGLDNQEGGVCQTRAMKILMKVGQDASSAGSTRNKDPTRRPELEAGTNGRSSTTSPFVKPNPGSSTDGNSAGHSGNNILGSEVALFA
Kd: 140 nM
